According to PMC12238454, “Soyasaponin β-glucosidase confers soybean resistance to pod borer (Leguminivora glycinivorella)” (aBIOTECH, 2025):

Assays:
Test in all cases: purified protein
Type in all cases: biochemical, Glycine max
Details in all cases: 50 mM Na2HPO4-citric acid buffer, optimal pH 5.5 and temperature 42 °C, apparent Km, substrate 1.25-80 µM
purified protein [1] = substrate: CC1(C)C[C@H]2C3=CC[C@@H]4[C@@]5(C)CC[C@H](O[C@@H]6O[C@H](C(=O)O)[C@@H](O)[C@H](O)[C@H]6O[C@@H]6O[C@H](CO)[C@H](O)[C@H](O)[C@H]6O)[C@](C)(CO)[C@@H]5CC[C@@]4(C)[C@]3(C)CC[C@@]2(C)[C@H](O[C@@H]2OC[C@H](O)[C@H](O)[C@H]2O)[C@@H]1O
purified protein [2] = substrate: CC1(C)C[C@H]2C3=CC[C@@H]4[C@@]5(C)CC[C@H](O[C@@H]6O[C@H](C(=O)O)[C@@H](O)[C@H](O)[C@H]6O[C@@H]6O[C@H](CO)[C@H](O)[C@H](O)[C@H]6O[C@@H]6O[C@H](CO)[C@@H](O)[C@H](O)[C@H]6O)[C@](C)(CO)[C@@H]5CC[C@@]4(C)[C@]3(C)CC[C@@]2(C)[C@H](O[C@@H]2OC[C@H](O)[C@H](O)[C@H]2O)[C@@H]1O
purified protein [3] = substrate: C[C@@H]1O[C@@H](O[C@H]2[C@H](O[C@H]3[C@H](O[C@H]4CC[C@@]5(C)[C@@H](CC[C@]6(C)[C@@H]5CC=C5[C@@H]7CC(C)(C)[C@@H](O)[C@@H](O[C@@H]8OC[C@H](O)[C@H](O)[C@H]8O)[C@]7(C)CC[C@]56C)[C@@]4(C)CO)O[C@H](C(=O)O)[C@@H](O)[C@@H]3O)O[C@H](CO)[C@H](O)[C@@H]2O)[C@H](O)[C@H](O)[C@H]1O

B1: GmSSBG1 (SSBG1Δ24; GmBGLU13) (Glycine max) (protein)
chain: LDLSFLPSDFLFGIASSSYQYEGAYKSDGKGLSNWDNYTHGPGRSVIMDGSNGDIAIDHYHRYLEDIDLMETLGVNSYRLSLSWARILPKGRFGEPNHAGIEFYNRLIDVLLLKGIQPFVTLSHYDIPQELEDRYGSWLSPQLQEDFAFYADLCFKTFGDRVKYWVTFNEPNFLVSLGYRSGLYPPCRCSGQLAMAKCSEGDSEKEPFVAAHNVILSHAAAVDIYRTKYQTEQKGSIGIVLQHEWFEPMSNSTADKLASERARAFNFNWFLDPIIFGKYPTEMENVLGSLLPKFSSYEKEKLKRGLDFIGVNYYTAFYVQDCMYSACKPGPGISRTEGSYKKSGEKNGVPIGEPTPFSWFNIYPDGMEKTVTYVRDRYNNTPIFLTENGYAEEVDPNFTSEEHLNDFKRIKYMVDHIEALLAAIRKGADVRGYFAWTLIDSFEWIYGYTVRYGFHHVDYATLKRTPRLSASWYKQLLVQYKKTFLLGTSMTGHEKLVQHT
notes: N-terminal 24-residue signal peptide removed (SSBG1Δ24); MBP fusion from pMAL-c2x, E. coli BL21(DE3), amylose resin; tag removal not mentioned
Km (purified protein [1]): 28.88 µM
kcat (purified protein [1]): 0.0018 s⁻¹
Km (purified protein [2]): 46.51 µM
kcat (purified protein [2]): 0.0040 s⁻¹
Km (purified protein [3]): 165.90 µM
kcat (purified protein [3]): 0.0072 s⁻¹
